The target in assay [1] is T1, human CD19-his protein (human, UniProt P15391 20-291).
T1 construct: also called recombinant human CD19-His; human CD19 protein; not shown: His tag
T1 sequence (looked up): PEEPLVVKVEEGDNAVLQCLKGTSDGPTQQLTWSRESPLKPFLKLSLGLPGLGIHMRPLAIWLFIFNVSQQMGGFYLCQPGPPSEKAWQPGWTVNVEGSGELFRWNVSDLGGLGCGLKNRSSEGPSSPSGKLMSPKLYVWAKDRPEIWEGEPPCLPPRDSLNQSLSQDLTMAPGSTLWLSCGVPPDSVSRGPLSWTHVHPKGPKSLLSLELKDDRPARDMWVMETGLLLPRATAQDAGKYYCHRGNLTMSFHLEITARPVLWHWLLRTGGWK
Nature of the assay: ELISA, human CD19-his coated at 4 ug/mL. As to the method:
A human CD19-his protein (purchased from ACROBiosystems, Cat. No. CD9-H52H2) was diluted with PBS to make a final concentration of 4 μg/mL, and then added into a 96-well ELISA plate at 100 μL/well. The plate was sealed with a plastic film and incubated at 4° C. overnight, wash twice with PBS the next day, and blocked at room temperature for 2 h by adding a blocking solution [PBS +2% (w/w) BSA]. […] After incubation for 2 h at 37° C., the plate was washed 3 times with PBS. […] After incubation for 1 h at 37° C., the plate was washed 5 times with PBS. A TMB substrate was added at 50 μL/well. After incubation at room temperature for 10 min, a stop solution (1.0 N HCl) was added at 50 μL/well. The OD450 nm values were read on an ELISA microplate reader (Multimode Plate Reader, EnSight, purchased from Perkin Elmer). […] The negative control antibody mIgG1 was an antibody against hen egg lysozyme, anti-hel-mIgG1 (purchased from Biointron, Cat. No. B118301), and the data in the table were OD450 nm values.

Assay [2] deals with T1, human CD19-his protein. Nature of the assay: SPR (Biacore), antibody captured on Protein A chip, human CD19-His as analyte, 1:1 Langmuir model. As to the method:
The anti-human CD19 antibody was captured using a Protein A chip (GE Healthcare; 29-127-558). The sample and running buffer was HBS-EP+(10 mM HEPES, 150 mM NaCl, 3 mM EDTA, 0.05% surfactant P20) (GE Healthcare; BR-1006-69). The flow cell was set at 25° C. The sample block was set at 16° C. Both were pretreated with the running buffer. In each cycle, first, the test antibody was captured using the Protein A chip, and then a single concentration of CD19 antigen protein was injected. The association and dissociation processes of the antibody with the antigen protein were recorded, and finally, the chip was regenerated using Glycine pH 1.5 (GE Healthcare; BR-1003-54). The association was determined by injecting different concentrations of recombinant human CD19-His in the solution and maintaining for 240 s, wherein the flow rate was 30 μL/min, and the protein was diluted in a 1:1 dilution ratio from 200 nM (see detailed results for actual concentrations tested) to obtain 5 concentrations in total. The dissociation phase was monitored for up to 600 s and triggered by switching from the sample solution to the running buffer. The surface was regenerated by washing with 10 mM glycine solution (pH 1.5) at a flow rate of 30 μL/min for 30 s. The difference in bulk refractive index was corrected by subtracting the responses obtained from the goat anti-human Fc surface. Blank injections were also subtracted (double reference). To calculate the apparent KD and other kinetic parameters, the Langmuir 1:1 model was used.
In general terms: In SPR one partner is held on a chip, and binding of the other changes the refractive index at the surface.

The target of assay [3] is T2, murine CD19 protein (murine, UniProt P25918 19-287, limits assumed).
T2 construct: also called mouse CD19-his protein
T2 sequence (looked up): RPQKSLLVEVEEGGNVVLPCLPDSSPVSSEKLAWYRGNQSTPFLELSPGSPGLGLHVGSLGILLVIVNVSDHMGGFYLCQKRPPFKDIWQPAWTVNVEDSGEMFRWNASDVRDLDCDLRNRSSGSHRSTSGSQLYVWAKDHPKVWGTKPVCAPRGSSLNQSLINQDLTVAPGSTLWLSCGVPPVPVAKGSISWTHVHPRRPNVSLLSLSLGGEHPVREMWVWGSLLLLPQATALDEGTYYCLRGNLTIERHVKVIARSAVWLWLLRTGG
As to the kind of experiment: ELISA, murine CD19 coated. For orientation: In an ELISA, binding on a coated surface is turned into a signal by an enzyme label.

B1: FMC63.26-mIgG1 (antibody, V domains shown)
VH: EVTLKESGPVLVKPTETLTLTCTVSGFSLPDYGVSWIRQPPGKALEWLAVIWGSETTYYNSALKSRLTISKDTSKSQVVLTMTNMDPVDTATYYCAKHYYYGGSYAMDYWGQGTTVTVSS
VL: DIQMTQSPSSLSASVGDRVTITCRASQDISKYLNWYQQKPGGAVKLLIYHTSRLHSGVPSRFSGSGSGTDYTLTISSLQPEDFATYYCQQGNTLPYTFGGGTKVEIKR
notes: Humanized FMC63; also called FMC63-L2H6
The Kd is the constant that tells how readily two partners part at equilibrium. A higher Kd goes with a looser complex. The term koff denotes the rate constant with which the complex falls apart. Lower therefore signals a long-lived complex. The kon is the rate constant with which the complex forms. Regarding B1, in assay [1], the “OD450 at 0.0001 nM” value was determined as 0.11 OD450, the “OD450 at 0.001 nM” value came to 0.15 OD450, the “OD450 at 0.01 nM” value stood at 0.38 OD450 and the “OD450 at 0.10 nM” value came to 1.54 OD450. Also, in assay [1], the “OD450 at 1.00 nM” value was found to be 2.37 OD450, the “OD450 at 10.00 nM” value was determined as 2.38 OD450 and the “OD450 at 100.00 nM” value worked out at 2.59 OD450. In assay [2], the Kd was found to be 0.346 nM, the koff stood at 3.36e-05 s⁻¹ and the kon was found to be 97200 M⁻¹ s⁻¹. In assay [3], the “OD450 at 0.0001 nM” value was 0.08 OD450, the “OD450 at 0.001 nM” value is 0.07 OD450, the “OD450 at 0.01 nM” value came to 0.06 OD450 and the “OD450 at 0.10 nM” value is 0.07 OD450. In addition, in assay [3], the “OD450 at 1.00 nM” value came out at 0.08 OD450, the “OD450 at 10.00 nM” value stood at 0.09 OD450 and the “OD450 at 100.00 nM” value amounted to 0.13 OD450.

B2: FMC63.25-mIgG1 (antibody, V domains shown)
VH: EVTLKESGPVLVKPTETLTLTCTVSGFSLSDYGVSWIRQPPGKALEWLAVIWGSETTYYNSALKSRLTISKDTSKSQVVLTMTNMDPVDTATYYCAKHYYYGGSYAMDYWGQGTTVTVSS
VL: DIQMTQSPSSLSASVGDRVTITCRASQDISKYLNWYQQKPGGAVKLLIYHTSRLHSGVPSRFSGSGSGTDYTLTISSLQPEDFATYYCQQGNTLPYTFGGGTKVEIKR
notes: Humanized FMC63; also called FMC63-L2H5
B2: in assay [1], the “OD450 at 0.0001 nM” value was 0.13 OD450, the “OD450 at 0.001 nM” value is 0.17 OD450, the “OD450 at 0.01 nM” value was found to be 0.51 OD450 and the “OD450 at 0.10 nM” value came out at 1.71 OD450. Further, in assay [1], the “OD450 at 1.00 nM” value was 2.44 OD450, the “OD450 at 10.00 nM” value is 2.46 OD450 and the “OD450 at 100.00 nM” value is 2.75 OD450. In assay [2], this molecule displayed a Kd of 0.0195 nM, a koff of 1.8e-06 s⁻¹ and a kon of 92400 M⁻¹ s⁻¹. In assay [3], the “OD450 at 0.0001 nM” value is 0.08 OD450, the “OD450 at 0.001 nM” value amounted to 0.08 OD450, the “OD450 at 0.01 nM” value stood at 0.08 OD450 and the “OD450 at 0.10 nM” value is 0.08 OD450. Besides, in assay [3], the “OD450 at 1.00 nM” value was 0.08 OD450, the “OD450 at 10.00 nM” value came to 0.08 OD450 and the “OD450 at 100.00 nM” value came to 0.09 OD450.

B3: FMC63.27-mIgG1 (antibody, V domains shown)
VH: EVTLKESGPVLVKPTETLTLTCTVSGVSLPDYGVSWIRQPPGKALEWLAVIWGSETTYYNSALKSRLTISKDNSKSQVVLTMTNMDPVDTATYYCAKHYYYGGSYAMDYWGQGTTVTVSS
VL: DIQMTQSPSSLSASVGDRVTITCRASQDISKYLNWYQQKPGGAVKLLIYHTSRLHSGVPSRFSGSGSGTDYTLTISSLQPEDFATYYCQQGNTLPYTFGGGTKVEIKR
notes: Humanized FMC63; also called FMC63-L2H7
For the molecule B3, in assay [1], the “OD450 at 0.0001 nM” value stood at 0.11 OD450, the “OD450 at 0.001 nM” value amounted to 0.16 OD450, the “OD450 at 0.01 nM” value was 0.39 OD450 and the “OD450 at 0.10 nM” value stood at 1.52 OD450. For the same molecule, in assay [1], the “OD450 at 1.00 nM” value was 2.29 OD450, the “OD450 at 10.00 nM” value was found to be 2.32 OD450 and the “OD450 at 100.00 nM” value turned out to be 2.64 OD450. Besides, in assay [2], the Kd was 1.81 nM, the dissociation rate constant (koff) is 0.000152 s⁻¹ and the kon came to 84200 M⁻¹ s⁻¹. For the same molecule, in assay [3], the “OD450 at 0.0001 nM” value turned out to be 0.06 OD450, the “OD450 at 0.001 nM” value was 0.06 OD450, the “OD450 at 0.01 nM” value was 0.06 OD450 and the “OD450 at 0.10 nM” value is 0.05 OD450. In addition, in assay [3], the “OD450 at 1.00 nM” value turned out to be 0.06 OD450, the “OD450 at 10.00 nM” value came to 0.08 OD450 and the “OD450 at 100.00 nM” value is 0.11 OD450.

The values are drawn from US20230406922A1 (SIMCERE ZAIMING PHARMACEUTICAL, published 2023).
